Laboratory results taken from the supplement of paper PMC10899765.

Legend:
Settings in all cases: 20 nM; 72 h
MCF10A [1] = test: one-nucleolus phenotype percent effect (relative to siNT 0% and siNOL11 100%); higher = more cells with one nucleolus (ribosome biogenesis inhibition)
Description: (§1)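 After 72 h, cells were fixed and stained with Hoechst and anti-fibrillarin, and nucleoli per nucleus were counted with CellProfiler. Values are plate-adjusted percent effect for the one-nucleolus and 5+ nucleoli phenotypes, normalised to siNT (0%) and to the positive controls siNOL11 or siKIF11 (100%), as the mean of biological triplicates. Percent viability is the nuclei count relative to siNT.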

MCF10A [2] = test: percent viability (nuclei count relative to siNT); higher = more viable cells
Description: as §1

MCF10A [3] = test: 5+ nucleoli phenotype percent effect (relative to siNT 0% and siKIF11 100%); higher = more cells with five or more nucleoli
Description: as §1

| Sequence | one-nucleolus phenotype percent effect (MCF10A [1]) [%] | percent viability (MCF10A [2]) [%] | 5+ nucleoli phenotype percent effect (MCF10A [3]) [%] |
| --- | --- | --- | --- |
| UGUCCUCUGUUCCUCAG [hsa-miR-6852-3p] | 43.6 | 17.2 | 9.01 |
| ACCCUUGAGCCUGAUCCCUAGC [hsa-miR-4780] | -13.2 | 99.8 | 4 |
| UCCUGCGCGUCCCAGAUGCCC [hsa-miR-1539] | 15.6 | 60.9 | -2.94 |
| CCCUGGGCCUCUGCUCCCCAG [hsa-miR-939-3p] | 17.1 | 31.6 | -13 |
| UUAGGCCAUCAUCCCAUUAUGC [hsa-miR-5704] | -23.2 | 181 | 46.5 |
| AAAAACUGCAAUCACUUUUGC [hsa-miR-548az-3p] | -6.63 | 62 | 7.93 |
| CAGCCCGGAUCCCAGCCCACUU [hsa-miR-3940-3p] | 2.08 | 33.5 | -8.21 |
| CUUAUAUCAGAGGCUGUGGG [hsa-miR-6083] | 28.6 | 40.8 | -34.4 |
| UACUCAGGAGAGUGGCAAUCAC [hsa-miR-510] | 41.9 | 20.5 | -26.8 |
| UAGAGAGGGGAAGGAUGUGAUGU [hsa-miR-6758-5p] | 12.9 | 44.4 | -13.9 |
| AGGCUGGGCUGGGACGGA [hsa-miR-4505] | 32.2 | 12.3 | 21.9 |
| CCCCUGGGCCGGCCUUGG [hsa-miR-4292] | 4.18 | 26.6 | 31.4 |
| UGUAAACAUCCUCGACUGGAAG [hsa-miR-30a-5p] | -3.76 | 47.2 | 9.35 |
| CCAACCUAGGUGGUCAGAGUUG [hsa-miR-4714-3p] | -11.1 | 98.3 | 42 |
| UGAGGCUCUGUUAGCCUUGGCUC [hsa-miR-2467-5p] | 37.5 | 29.8 | -10.9 |
| GAAUACGUCUGGUUGAUCC [hsa-miR-6082] | -25.8 | 186 | 67.8 |
| ACUGGAAUUGGAGUCAAAA [hsa-miR-6128] | -18.6 | 105 | 36.5 |
| UUGUGGCUGGUCAUGAGGCUAA [hsa-miR-4474-3p] | 3.27 | 75.4 | 22.3 |
| ACAGCAGGCACAGACAGGCAGU [hsa-miR-214-3p] | 13.3 | 19.3 | -1.88 |
| GAGGGUUGGGUGGAGGCUCUCC [hsa-miR-296-3p] | 20.8 | 57.1 | 9.3 |
| AGGCGAUGUGGGGAUGUAGAGA [hsa-miR-6717-5p] | 19.4 | 30.5 | -15.8 |
| GAACGCGCUUCCCUAUAGAGGGU [hsa-miR-523-3p] | -18.2 | 119 | 23.3 |
| AGACUGACGGCUGGAGGCCCAU [hsa-miR-4513] | -13.8 | 43.7 | 21.1 |
| UCUGCCCCCUCCGCUGCUGCCA [hsa-miR-1913] | -11.1 | 88.8 | 54.4 |

| Sequence | one-nucleolus phenotype percent effect (MCF10A [1]) [%] | percent viability (MCF10A [2]) [%] | 5+ nucleoli phenotype percent effect (MCF10A [3]) [%] |
| --- | --- | --- | --- |
| UAGCGGGGAUUCCAAUAUUGG [hsa-miR-4781-5p] | 46.5 | 24.3 | -29.7 |
| CGAAAACAGCAAUUACCUUUGC [hsa-miR-570-3p] | -22.6 | 164 | 34.2 |
| UUAGCUUAAGGAGUACCAGAUC [hsa-miR-5579-3p] | -7.52 | 65.6 | 7.97 |
| UUAAGACUUGCAGUGAUGUUU [hsa-miR-499a-5p] | 5.05 | 102 | -1.56 |
| UAUUCAGAAAGGUGCCAGUCA [hsa-miR-892c-5p] | -3.71 | 71.8 | 9.47 |
| UCAGGCAAAGGGAUAUUUACAGA [hsa-miR-4742-5p] | -11.1 | 45.1 | 6.44 |
| GGGGGAAGAAAAGGUGGGG [hsa-miR-4271] | -5.03 | 72.2 | 20.1 |
| CAGCAGCAAUUCAUGUUUUGAA [hsa-miR-424-5p] | 24 | 77.3 | -8.58 |
| GCUGAACUGGGCUGAGCUGGGC [hsa-miR-4539] | -1.34 | 87 | -5.15 |
| CAACACCAGUCGAUGGGCUGU [hsa-miR-21-3p] | 35.5 | 52.9 | -31.2 |
| GUGAGGGCAUGCAGGCCUGGAUGGGG [hsa-miR-1226-5p] | -14.2 | 114 | 53.3 |
| AUGCUGACAUAUUUACUAGAGG [hsa-miR-628-5p] | -9.78 | 107 | 32.8 |
| ACGGUGCUGGAUGUGGCCUUU [hsa-miR-1250] | 57.9 | 25 | -44.5 |
| GCUCUGACUUUAUUGCACUACU [hsa-miR-301a-5p] | -23.6 | 68.8 | 59.9 |
| GUGGUUAUCCCUGCUGUGUUCG [hsa-miR-487a-5p] | -14.4 | 42 | 24.8 |
| ACCUCCUGUGUGCAUGGAUUA [hsa-miR-660-3p] | 16.9 | 37.2 | -17.5 |
| GUGUGGCCGGCAGGCGGGUGG [hsa-miR-7108-5p] | -12.6 | 55.9 | 6.78 |
| UUUUGUGUCUCCCAUUCCCCAG [hsa-miR-5010-3p] | -9.03 | 57.3 | -18.5 |
| GGAGGAACCUUGGAGCUUCGGC [hsa-miR-3928] | -14.5 | 50 | 45.7 |
| UCUGGCCAGCUACGUCCCCA [hsa-miR-3190-5p] | -10.2 | 48.9 | 19.8 |
| UGAAGCGCCUGUGCUCUGCCGAGA [hsa-miR-7706] | -18.1 | 40.2 | 12.3 |
| AGGAGAAGUCGGGAAGGU [hsa-miR-5703] | -5.15 | 30.6 | 33.6 |
| CGGAUGAGCAAAGAAAGUGGUU [hsa-miR-1255b-5p] | -12.5 | 64.1 | 45.2 |
| UGUUUGUUGUAAGGAUCGUUGU [hsa-miR-8068] | 7.78 | 34.1 | -15.7 |
